According to patent US20060246543:

Target: T1, STAT4 immunoprecipitated with anti-STAT4 from ConA-activated thymocytes
T1 sequence (P42228 1-749, species assumed, looked up): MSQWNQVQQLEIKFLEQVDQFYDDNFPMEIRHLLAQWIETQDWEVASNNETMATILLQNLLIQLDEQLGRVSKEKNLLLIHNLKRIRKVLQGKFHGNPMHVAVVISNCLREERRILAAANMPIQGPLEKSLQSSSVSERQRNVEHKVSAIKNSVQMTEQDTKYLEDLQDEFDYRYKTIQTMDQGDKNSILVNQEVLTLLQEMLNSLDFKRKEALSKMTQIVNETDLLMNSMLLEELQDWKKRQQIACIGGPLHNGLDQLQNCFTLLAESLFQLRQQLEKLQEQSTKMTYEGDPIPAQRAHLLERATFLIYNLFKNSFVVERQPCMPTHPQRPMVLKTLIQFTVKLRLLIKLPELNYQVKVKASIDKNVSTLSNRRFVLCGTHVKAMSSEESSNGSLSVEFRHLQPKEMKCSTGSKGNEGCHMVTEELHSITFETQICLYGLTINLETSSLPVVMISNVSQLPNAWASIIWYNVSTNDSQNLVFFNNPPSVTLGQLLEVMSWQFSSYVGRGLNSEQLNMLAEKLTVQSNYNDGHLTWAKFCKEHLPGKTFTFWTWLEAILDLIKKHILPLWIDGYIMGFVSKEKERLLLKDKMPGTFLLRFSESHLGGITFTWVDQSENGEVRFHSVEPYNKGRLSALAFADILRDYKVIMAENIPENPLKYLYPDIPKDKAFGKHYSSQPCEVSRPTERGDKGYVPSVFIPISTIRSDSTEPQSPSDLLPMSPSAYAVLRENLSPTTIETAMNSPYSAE

B1: recombinant SLIM (His-SLIM expressed in E. coli and purified on a Nickel column) (protein)
chain: MALTVDVAGPAPWGFRISGGRDFHTPIIVTKVTERGKAEAADLRPGDIIVAINGQSAENMLHAEAQSKIRQSASPLRLQLDRSQTASPGQTNGEGSLEVLATRFQGSLRTHRDSQSSQRSACFSPVSLSPRPCSPFSTPPPTSPVALSKEDMIGCSFQSLTHSPGLAAAHHLTYPGHPTSQQAGHSSPSDSAVRVLLHSPGRPSSPRFSLDLEEDSEVFKMLQENRQGRAAPRQSSSFRLLQEALEAEERGGTPAFVPSSLSSQASLPTSRALATPPKLHTCKKCSVNISNQAVRIQEGRYRHPGCYTCADCGLNLKMRGHFWVGNELYCEKHARQRYSMPGTLNSRA
  in vitro ubiquitination of STAT4 (biotin-ubiquitin, E1, UbcH5a; immunoblot anti-STAT4): purified recombinant SLIM could mediate the in vitro ubiquitination of purified STAT4 which was immunoprecipitated from ConA-activated thymocytes
